Results taken from patent US20210070881A1.

Molecular target: cellular BACE1 in CHOK1-huAPP cells
Assay: cell-based or functional assay

B1: Clone35.23.4:Control IgG (anti-RSV)/2H8 (bispecific antibody, part only; not given: Anti-RSV arm; TfR-binding Fc, V domains shown, part only)
VH: QVQLVQSGAEVKKPGASVKVSCKASGYTFTNFWIHWVRQAPGQGLEWMGMIDPSSSYTKYNQKFKARATLTVDTSTSTVYMELSSLRSEDTAVYYCARSGASLPYWGQGTLVTVSS
VL: DIQMTQSPSSLSASVGDRVTITCKASQDVGRNVAWYQQKPGKSPKSLIYSASHYYSGVPSRFSGSGSGTDFTLTISSLQPEDFATYFCQQYYSYPYTFGQGTKVEIK
A cellular IC50 (human Aβ40, CHO-huAPP cells) of 37 nM and a maximum percent Aβ reduction compared to untreated control of 83% were found for B1 in this work.
